Source: patent US20220324969A1 (MYTHIC THERAPEUTICS, published 2022)

Molecular target: CD33 (Sino Biological, Cat #12238-H08H) (UniProt P20138 18-259)
Assay: BLI, IgG captured on anti-human Fc sensor, 50 nM CD33, pH 7.4 vs pH 5.4

Sequence of CD33 (Sino Biological, Cat #12238-H08H) (P20138 18-259 limits assumed): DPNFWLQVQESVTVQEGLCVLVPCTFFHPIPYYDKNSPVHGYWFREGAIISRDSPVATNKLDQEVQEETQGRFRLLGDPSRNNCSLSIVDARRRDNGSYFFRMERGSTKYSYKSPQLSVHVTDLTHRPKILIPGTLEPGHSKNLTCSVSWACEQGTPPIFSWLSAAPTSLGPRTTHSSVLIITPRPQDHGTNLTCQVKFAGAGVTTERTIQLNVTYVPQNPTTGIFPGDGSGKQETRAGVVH

| binding result | Binder |
| --- | --- |
| binds | MYT1166 (antibody, V domains shown, IgG; gemtuzumab VH combination #5 (S32H+Y52H)) VH: EVQLVQSGAEVKKPGSSVKVSCKASGYTITDHNIHWVRQAPGQSLEWIGYIHPYNGGTDYNQKFKNRATLTVDNPTNTAYMELSSLRSEDTDFYYCVNGNPWLAYWGQGTLVTVSS VL: DIQLTQSPSTLSASVGDRVTITCRASESLDNYGIRFLTWFQQKPGKAPKLLMYAASNQGSGVPSRFSGSGSGTEFTLTISSLQPDDFATYYCQQTKEVPWSFGQGTKVEVK |
| binds | MYT1167 (antibody, V domains shown, IgG; gemtuzumab VH combination #6 (S32H+Y54H)) VH: EVQLVQSGAEVKKPGSSVKVSCKASGYTITDHNIHWVRQAPGQSLEWIGYIYPHNGGTDYNQKFKNRATLTVDNPTNTAYMELSSLRSEDTDFYYCVNGNPWLAYWGQGTLVTVSS VL: DIQLTQSPSTLSASVGDRVTITCRASESLDNYGIRFLTWFQQKPGKAPKLLMYAASNQGSGVPSRFSGSGSGTEFTLTISSLQPDDFATYYCQQTKEVPWSFGQGTKVEVK |
| binds | MYT1597 (antibody, V domains shown, IgG; gemtuzumab VL variant #8 (N31H)) VH: EVQLVQSGAEVKKPGSSVKVSCKASGYTITDSNIHWVRQAPGQSLEWIGYIYPYNGGTDYNQKFKNRATLTVDNPTNTAYMELSSLRSEDTDFYYCVNGNPWLAYWGQGTLVTVSS VL: DIQLTQSPSTLSASVGDRVTITCRASESLDHYGIRFLTWFQQKPGKAPKLLMYAASNQGSGVPSRFSGSGSGTEFTLTISSLQPDDFATYYCQQTKEVPWSFGQGTKVEVK |
| binds | MYT1180 (antibody, V domains shown, IgG; gemtuzumab VH combination #19 (S32H+Y54H+G57H)) VH: EVQLVQSGAEVKKPGSSVKVSCKASGYTITDHNIHWVRQAPGQSLEWIGYIYPHNGHTDYNQKFKNRATLTVDNPTNTAYMELSSLRSEDTDFYYCVNGNPWLAYWGQGTLVTVSS VL: DIQLTQSPSTLSASVGDRVTITCRASESLDNYGIRFLTWFQQKPGKAPKLLMYAASNQGSGVPSRFSGSGSGTEFTLTISSLQPDDFATYYCQQTKEVPWSFGQGTKVEVK |
| binds | MYT1168 (antibody, V domains shown, IgG; gemtuzumab VH combination #7 (S32H+G57H)) VH: EVQLVQSGAEVKKPGSSVKVSCKASGYTITDHNIHWVRQAPGQSLEWIGYIYPYNGHTDYNQKFKNRATLTVDNPTNTAYMELSSLRSEDTDFYYCVNGNPWLAYWGQGTLVTVSS VL: DIQLTQSPSTLSASVGDRVTITCRASESLDNYGIRFLTWFQQKPGKAPKLLMYAASNQGSGVPSRFSGSGSGTEFTLTISSLQPDDFATYYCQQTKEVPWSFGQGTKVEVK |
| binds | MYT1174 (antibody, V domains shown, IgG; gemtuzumab VH combination #13 (I29H+S32H+G57H)) VH: EVQLVQSGAEVKKPGSSVKVSCKASGYTHTDHNIHWVRQAPGQSLEWIGYIYPYNGHTDYNQKFKNRATLTVDNPTNTAYMELSSLRSEDTDFYYCVNGNPWLAYWGQGTLVTVSS VL: DIQLTQSPSTLSASVGDRVTITCRASESLDNYGIRFLTWFQQKPGKAPKLLMYAASNQGSGVPSRFSGSGSGTEFTLTISSLQPDDFATYYCQQTKEVPWSFGQGTKVEVK |
| binds | MYT1178 (antibody, V domains shown, IgG; gemtuzumab VH combination #17 (S32H+Y52H+Y54H)) VH: EVQLVQSGAEVKKPGSSVKVSCKASGYTITDHNIHWVRQAPGQSLEWIGYIHPHNGGTDYNQKFKNRATLTVDNPTNTAYMELSSLRSEDTDFYYCVNGNPWLAYWGQGTLVTVSS VL: DIQLTQSPSTLSASVGDRVTITCRASESLDNYGIRFLTWFQQKPGKAPKLLMYAASNQGSGVPSRFSGSGSGTEFTLTISSLQPDDFATYYCQQTKEVPWSFGQGTKVEVK |
| binds | MYT1599 (antibody, V domains shown, IgG; gemtuzumab VL variant #10 (G33H)) VH: EVQLVQSGAEVKKPGSSVKVSCKASGYTITDSNIHWVRQAPGQSLEWIGYIYPYNGGTDYNQKFKNRATLTVDNPTNTAYMELSSLRSEDTDFYYCVNGNPWLAYWGQGTLVTVSS VL: DIQLTQSPSTLSASVGDRVTITCRASESLDNYHIRFLTWFQQKPGKAPKLLMYAASNQGSGVPSRFSGSGSGTEFTLTISSLQPDDFATYYCQQTKEVPWSFGQGTKVEVK |
| binds | MYT1179 (antibody, V domains shown, IgG; gemtuzumab VH combination #18 (S32H+Y52H+G57H)) VH: EVQLVQSGAEVKKPGSSVKVSCKASGYTITDHNIHWVRQAPGQSLEWIGYIHPYNGHTDYNQKFKNRATLTVDNPTNTAYMELSSLRSEDTDFYYCVNGNPWLAYWGQGTLVTVSS VL: DIQLTQSPSTLSASVGDRVTITCRASESLDNYGIRFLTWFQQKPGKAPKLLMYAASNQGSGVPSRFSGSGSGTEFTLTISSLQPDDFATYYCQQTKEVPWSFGQGTKVEVK |
| binds | MYT1176 (antibody, V domains shown, IgG; gemtuzumab VH combination #15 (I29H+Y52H+G57H)) VH: EVQLVQSGAEVKKPGSSVKVSCKASGYTHTDSNIHWVRQAPGQSLEWIGYIHPYNGHTDYNQKFKNRATLTVDNPTNTAYMELSSLRSEDTDFYYCVNGNPWLAYWGQGTLVTVSS VL: DIQLTQSPSTLSASVGDRVTITCRASESLDNYGIRFLTWFQQKPGKAPKLLMYAASNQGSGVPSRFSGSGSGTEFTLTISSLQPDDFATYYCQQTKEVPWSFGQGTKVEVK |
| binds | MYT1590 (antibody, V domains shown, IgG; gemtuzumab VL variant #1 (R24H)) VH: EVQLVQSGAEVKKPGSSVKVSCKASGYTITDSNIHWVRQAPGQSLEWIGYIYPYNGGTDYNQKFKNRATLTVDNPTNTAYMELSSLRSEDTDFYYCVNGNPWLAYWGQGTLVTVSS VL: DIQLTQSPSTLSASVGDRVTITCHASESLDNYGIRFLTWFQQKPGKAPKLLMYAASNQGSGVPSRFSGSGSGTEFTLTISSLQPDDFATYYCQQTKEVPWSFGQGTKVEVK |
| binds | MYT1177 (antibody, V domains shown, IgG; gemtuzumab VH combination #16 (I29H+Y54H+G57H)) VH: EVQLVQSGAEVKKPGSSVKVSCKASGYTHTDSNIHWVRQAPGQSLEWIGYIYPHNGHTDYNQKFKNRATLTVDNPTNTAYMELSSLRSEDTDFYYCVNGNPWLAYWGQGTLVTVSS VL: DIQLTQSPSTLSASVGDRVTITCRASESLDNYGIRFLTWFQQKPGKAPKLLMYAASNQGSGVPSRFSGSGSGTEFTLTISSLQPDDFATYYCQQTKEVPWSFGQGTKVEVK |
| binds | MYT1171 (antibody, V domains shown, IgG; gemtuzumab VH combination #10 (Y54H+G57H)) VH: EVQLVQSGAEVKKPGSSVKVSCKASGYTITDSNIHWVRQAPGQSLEWIGYIYPHNGHTDYNQKFKNRATLTVDNPTNTAYMELSSLRSEDTDFYYCVNGNPWLAYWGQGTLVTVSS VL: DIQLTQSPSTLSASVGDRVTITCRASESLDNYGIRFLTWFQQKPGKAPKLLMYAASNQGSGVPSRFSGSGSGTEFTLTISSLQPDDFATYYCQQTKEVPWSFGQGTKVEVK |
| binds | MYT1181 (antibody, V domains shown, IgG; gemtuzumab VH combination #20 (Y52H+Y54H+G57H)) VH: EVQLVQSGAEVKKPGSSVKVSCKASGYTITDSNIHWVRQAPGQSLEWIGYIHPHNGHTDYNQKFKNRATLTVDNPTNTAYMELSSLRSEDTDFYYCVNGNPWLAYWGQGTLVTVSS VL: DIQLTQSPSTLSASVGDRVTITCRASESLDNYGIRFLTWFQQKPGKAPKLLMYAASNQGSGVPSRFSGSGSGTEFTLTISSLQPDDFATYYCQQTKEVPWSFGQGTKVEVK |
| binds | MYT1594 (antibody, V domains shown, IgG; gemtuzumab VL variant #5 (S28H)) VH: EVQLVQSGAEVKKPGSSVKVSCKASGYTITDSNIHWVRQAPGQSLEWIGYIYPYNGGTDYNQKFKNRATLTVDNPTNTAYMELSSLRSEDTDFYYCVNGNPWLAYWGQGTLVTVSS VL: DIQLTQSPSTLSASVGDRVTITCRASEHLDNYGIRFLTWFQQKPGKAPKLLMYAASNQGSGVPSRFSGSGSGTEFTLTISSLQPDDFATYYCQQTKEVPWSFGQGTKVEVK |
| binds | MYT1602 (antibody, V domains shown, IgG; gemtuzumab VL variant #13 (F36H)) VH: EVQLVQSGAEVKKPGSSVKVSCKASGYTITDSNIHWVRQAPGQSLEWIGYIYPYNGGTDYNQKFKNRATLTVDNPTNTAYMELSSLRSEDTDFYYCVNGNPWLAYWGQGTLVTVSS VL: DIQLTQSPSTLSASVGDRVTITCRASESLDNYGIRHLTWFQQKPGKAPKLLMYAASNQGSGVPSRFSGSGSGTEFTLTISSLQPDDFATYYCQQTKEVPWSFGQGTKVEVK |
| binds | MYT1593 (antibody, V domains shown, IgG; gemtuzumab VL variant #4 (E27H)) VH: EVQLVQSGAEVKKPGSSVKVSCKASGYTITDSNIHWVRQAPGQSLEWIGYIYPYNGGTDYNQKFKNRATLTVDNPTNTAYMELSSLRSEDTDFYYCVNGNPWLAYWGQGTLVTVSS VL: DIQLTQSPSTLSASVGDRVTITCRASHSLDNYGIRFLTWFQQKPGKAPKLLMYAASNQGSGVPSRFSGSGSGTEFTLTISSLQPDDFATYYCQQTKEVPWSFGQGTKVEVK |
| binds | MYT1170 (antibody, V domains shown, IgG; gemtuzumab VH combination #9 (Y52H+G57H)) VH: EVQLVQSGAEVKKPGSSVKVSCKASGYTITDSNIHWVRQAPGQSLEWIGYIHPYNGHTDYNQKFKNRATLTVDNPTNTAYMELSSLRSEDTDFYYCVNGNPWLAYWGQGTLVTVSS VL: DIQLTQSPSTLSASVGDRVTITCRASESLDNYGIRFLTWFQQKPGKAPKLLMYAASNQGSGVPSRFSGSGSGTEFTLTISSLQPDDFATYYCQQTKEVPWSFGQGTKVEVK |
| binds | MYT1169 (antibody, V domains shown, IgG; gemtuzumab VH combination #8 (Y52H+Y54H)) VH: EVQLVQSGAEVKKPGSSVKVSCKASGYTITDSNIHWVRQAPGQSLEWIGYIHPHNGGTDYNQKFKNRATLTVDNPTNTAYMELSSLRSEDTDFYYCVNGNPWLAYWGQGTLVTVSS VL: DIQLTQSPSTLSASVGDRVTITCRASESLDNYGIRFLTWFQQKPGKAPKLLMYAASNQGSGVPSRFSGSGSGTEFTLTISSLQPDDFATYYCQQTKEVPWSFGQGTKVEVK |
| binds | MYT1598 (antibody, V domains shown, IgG; gemtuzumab VL variant #9 (Y32H)) VH: EVQLVQSGAEVKKPGSSVKVSCKASGYTITDSNIHWVRQAPGQSLEWIGYIYPYNGGTDYNQKFKNRATLTVDNPTNTAYMELSSLRSEDTDFYYCVNGNPWLAYWGQGTLVTVSS VL: DIQLTQSPSTLSASVGDRVTITCRASESLDNHGIRFLTWFQQKPGKAPKLLMYAASNQGSGVPSRFSGSGSGTEFTLTISSLQPDDFATYYCQQTKEVPWSFGQGTKVEVK |
| binds | MYT1596 (antibody, V domains shown, IgG; gemtuzumab VL variant #7 (D30H)) VH: EVQLVQSGAEVKKPGSSVKVSCKASGYTITDSNIHWVRQAPGQSLEWIGYIYPYNGGTDYNQKFKNRATLTVDNPTNTAYMELSSLRSEDTDFYYCVNGNPWLAYWGQGTLVTVSS VL: DIQLTQSPSTLSASVGDRVTITCRASESLHNYGIRFLTWFQQKPGKAPKLLMYAASNQGSGVPSRFSGSGSGTEFTLTISSLQPDDFATYYCQQTKEVPWSFGQGTKVEVK |
| binds | MYT1601 (antibody, V domains shown, IgG; gemtuzumab VL variant #12 (R35H)) VH: EVQLVQSGAEVKKPGSSVKVSCKASGYTITDSNIHWVRQAPGQSLEWIGYIYPYNGGTDYNQKFKNRATLTVDNPTNTAYMELSSLRSEDTDFYYCVNGNPWLAYWGQGTLVTVSS VL: DIQLTQSPSTLSASVGDRVTITCRASESLDNYGIHFLTWFQQKPGKAPKLLMYAASNQGSGVPSRFSGSGSGTEFTLTISSLQPDDFATYYCQQTKEVPWSFGQGTKVEVK |
